Results on one variant are retold here after IntAct's records for PubMed 19037316.

The chains are these.
B1: Gibberellin receptor GID1 (Oryza sativa subsp. japonica (Rice)), Q6L545 (parent)
chain: MAGSDEVNRNECKTVVPLHTWVLISNFKLSYNILRRADGTFERDLGEYLDRRVPANARPLEGVSSFDHIIDQSVGLEVRIYRAAAEGDAEEGAAAVTRPILEFLTDAPAAEPFPVIIFFHGGSFVHSSASSTIYDSLCRRFVKLSKGVVVSVNYRRAPEHRYPCAYDDGWTALKWVMSQPFMRSGGDAQARVFLSGDSSGGNIAHHVAVRAADEGVKVCGNILLNAMFGGTERTESERRLDGKYFVTLQDRDWYWKAYLPEDADRDHPACNPFGPNGRRLGGLPFAKSLIIVSGLDLTCDRQLAYADALREDGHHVKVVQCENATVGFYLLPNTVHYHEVMEEISDFLNANLYY
partner: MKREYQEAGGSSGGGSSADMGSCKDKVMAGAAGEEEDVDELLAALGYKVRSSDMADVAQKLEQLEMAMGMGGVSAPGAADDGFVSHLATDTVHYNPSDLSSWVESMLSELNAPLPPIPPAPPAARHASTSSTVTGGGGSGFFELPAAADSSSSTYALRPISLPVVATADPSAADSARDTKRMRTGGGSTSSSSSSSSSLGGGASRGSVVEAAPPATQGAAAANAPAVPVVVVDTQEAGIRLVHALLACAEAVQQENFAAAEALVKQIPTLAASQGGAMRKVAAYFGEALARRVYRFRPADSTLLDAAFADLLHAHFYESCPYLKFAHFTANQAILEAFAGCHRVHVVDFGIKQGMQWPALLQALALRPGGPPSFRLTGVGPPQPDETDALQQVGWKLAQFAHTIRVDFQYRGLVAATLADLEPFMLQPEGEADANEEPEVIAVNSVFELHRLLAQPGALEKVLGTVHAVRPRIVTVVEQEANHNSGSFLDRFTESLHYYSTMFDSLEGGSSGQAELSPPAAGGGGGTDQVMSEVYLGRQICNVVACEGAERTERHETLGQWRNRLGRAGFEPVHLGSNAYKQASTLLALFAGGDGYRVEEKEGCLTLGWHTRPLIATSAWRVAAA

This assay covers variants of B1. The following applies: with slr1_orysj SLR1, Q7G7J6.
Turning to MAGSDEVNRNECKTVVPAHTAVLISNFKASYNALRRADGTFERDAGEALDRRVPANARPLEGVSSFDHIIDQSVGLEVRIYRAAAEGDAEEGAAAVTRPILEFLTDAPAAEPFPVIIFFHGGSFVHSSASSTIYDSLCRRFVKLSKGVVVSVNYRRAPEHRYPCAYDDGWTALKWVMSQPFMRSGGDAQARVFLSGDSSGGNIAHHVAVRAADEGVKVCGNILLNAMFGGTERTESERRLDGKYFVTLQDRDWYWKAYLPEDADRDHPACNPFGPNGRRLGGLPFAKSLIIVSGLDLTCDRQLAYADALREDGHHVKVVQCENATVGFYLLPNTVHYHEVMEEISDFLNANLYY [L18A;W21A;L29A;I33A;L45A;Y48A], the “effect of a mutation on the interaction” value is reported as “disrupting interaction”.
